We go through one molecule from patent WO2016038310A1 (dated 2016).

In assay [1] the target is T1, FSH ovine dimérique (ovine follicle-stimulating hormone) (ovine, UniProt P01218 25-120; P01227 20-129). Kind of assay: cell-based or functional assay.
In assay [2] the target is T2, FSH humaine recombinante Gonal-F (recombinant human FSH, Merck Serono) (human, UniProt P01215 25-116; P01225 19-129).
T2 construct: Commercial recombinant preparation; also called hFSH Gonal F; hFSH
Kind of assay: SPR (Biacore T100), A8 captured on anti-mouse Fc, hFSH injected. In general terms: SPR reads the build-up and loss of mass on a sensor chip optically.

Assay [3] addresses T1, FSH ovine dimérique (ovine …). The assay is described as follows: SPR (Biacore T100), A8 captured on anti-mouse Fc, oFSH injected.
Assay [4] addresses T2, FSH humaine recombinante Gonal-F …. Kind of assay: SPR (Biacore T100), A8 captured on anti-mouse Fc, hFSH injected 1,56 to 50nM.
Assay [5] deals with T1, FSH ovine dimérique (ovine …). The assay is described as follows: SPR (Biacore T100), A8 captured on anti-mouse Fc, oFSH injected 1,56 to 50nM.
For assay [6], the target named is T3, eCG commerciale Chronogest (MSD) (equine, UniProt P01220 25-120; P08751 21-169).
T3 construct: Commercial preparation; also called eCG Chronogest
Kind of assay: ELISA saturation binding, Kd estimated with GraphPad Prism (one site - specific binding).

Assay [7] deals with T4, hCG Chorulon (human chorionic gonadotropin extracted from urine, MSD) (human, UniProt P01215 25-116; P0DN86 21-165).
T4 construct: Commercial preparation
The assay is described as above.

Assay [8] deals with T5, hCG Endo 5000 (purified human chorionic gonadotropin, Schering-Plough) (human, UniProt P01215 25-116; P0DN86 21-165).
T5 construct: Commercial preparation; also called Gonadotropine Chorionique Endo5000
The assay is described as above.

T2 sequence (P01215 25-116 limits assumed, chain 1 of 2): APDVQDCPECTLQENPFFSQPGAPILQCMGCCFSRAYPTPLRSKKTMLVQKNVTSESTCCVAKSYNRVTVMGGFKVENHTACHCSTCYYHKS
T2 sequence (P01225 19-129 limits assumed, chain 2 of 2): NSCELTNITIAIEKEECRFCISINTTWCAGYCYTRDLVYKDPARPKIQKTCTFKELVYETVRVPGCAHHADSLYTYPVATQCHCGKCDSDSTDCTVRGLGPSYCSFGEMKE
T4 sequence (P01215 25-116 limits assumed, chain 1 of 2, other chains not shown): as the sequence (P01215 25-116 limits assumed, chain 1 of 2) above
T5 sequence (P01215 25-116 limits assumed, chain 1 of 2, other chains not shown): as the sequence (P01215 25-116 limits assumed, chain 1 of 2) above
T3 sequence (P01220 25-120 limits assumed, chain 1 of 2): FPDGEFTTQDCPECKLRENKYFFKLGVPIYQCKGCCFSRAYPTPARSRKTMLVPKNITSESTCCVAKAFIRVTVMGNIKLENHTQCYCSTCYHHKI
T3 sequence (P08751 21-169 limits assumed, chain 2 of 2): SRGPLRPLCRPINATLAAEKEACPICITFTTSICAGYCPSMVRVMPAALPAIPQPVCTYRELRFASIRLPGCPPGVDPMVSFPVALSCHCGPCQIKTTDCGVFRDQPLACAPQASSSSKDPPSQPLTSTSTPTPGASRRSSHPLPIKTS

B1: anticorps monoclonal A8 (monoclonal antibody A8, hybridoma CNCM I-4828) (antibody, V domains shown)
VH: EVQLQESGGGLVQPGGSRKLSCAASGFTFSDFGTHWIRQAPEKGLEWVAYISSGSSTRYYADTVKGRFTISRDDPKNTLFLQMTSLRSEDTAMYYCARSYDGYHVPSFAYWGQGTLVTVSA
VL: DVLMTQTPLSLSVSLGDQASISCRSSQNIVHSNGNTYLEWYLQKPGQSPKLLIYRVSNRFSGIPDRFSGSSSGTDFTLKISRVEAEDLGVYYCFQGSHVPLTFGAGTKLELK
notes: Purified antibody or hybridoma supernatant, depending on the assay; also called AcM A8; ligand A8
What is called koff is the rate constant with which the complex falls apart. By kon is commonly meant a measure of how fast the partners come together. Usually Kd stands for the constant that tells how readily two partners part at equilibrium. With B1, in assay [1], the “sécrétion d'AMPc (cAMP secretion), bovine granulosa cells, oFSH 3ng/ml” value is 2.1 fold. Further, in assay [1], the “sécrétion d'AMPc (cAMP secretion), bovine granulosa cells, oFSH 12,5 ng/ml” value was determined as 1.5 fold. Besides, the results for the off-rate constant (koff) in assay [2] and in assay [3] were 0.0011 s⁻¹ and 0.00082 s⁻¹, respectively. Also, the kon in assay [2] stood at 240000 M⁻¹ s⁻¹; in assay [3] it was 130000 M⁻¹ s⁻¹. Further, the equilibrium dissociation constant (Kd) in assay [4] was 4.7 nM; in assay [5] it was 6.3 nM; in assay [6], around 100 nM; in assay [7] it was around 100 nM; in assay [8], around 100 nM.
